T1: GST-LSH10 (Arabidopsis, UniProt Q9S7R3 1-177)
T1 sequence: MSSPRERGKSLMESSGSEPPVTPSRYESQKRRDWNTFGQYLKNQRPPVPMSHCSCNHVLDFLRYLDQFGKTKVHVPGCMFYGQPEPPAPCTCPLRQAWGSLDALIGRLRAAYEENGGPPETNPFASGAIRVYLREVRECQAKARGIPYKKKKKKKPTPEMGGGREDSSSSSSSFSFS

B1: LSH10-GFP (natural protein)
chain: T1 sequence
B2: probe g (ABI5) (dsDNA)
DNA 1: ACAAGAAGCGGATTCTCTCAGTTTTCCGGCGGCGGAGGAACA
DNA 2: TGTTCCTCCGCCGCCGGAAAACTGAGAGAATCCGCTTCTTGT
B3: probe f (ABI5) (dsDNA)
DNA 1: GCTTTTAAACTATGTGAAGGAGGAGAACCTCCATAACAA
DNA 2: TTGTTATGGAGGTTCTCCTCCTTCACATAGTTTAAAAGC
B4: probe a (OSR2) (dsDNA)
DNA 1: TAATATAAATTGCGTTTTGTTTTCCAGATATCAA
DNA 2: TTGATATCTGGAAAACAAAACGCAATTTATATTA
B5: probe d (WUS) (dsDNA)
DNA 1: TATATATATATAATCTTCTCTCTCACACAAAACCTAAAA
DNA 2: TTTTAGGTTTTGTGTGAGAGAGAAGATTATATATATATA
B6: probe e (WUS) (dsDNA)
DNA 1: ATTTACCGTTAACTTTGTGAACAAAAGTCGAATCAAACACAC
DNA 2: GTGTGTTTGATTCGACTTTTGTTCACAAAGTTAACGGTAAAT
B7: probe h (ARL) (dsDNA)
DNA 1: TCAGAGAAAGTGTCTAGGGGAGAAGAACCACTGTGATTG
DNA 2: CAATCACAGTGGTTCTTCTCCCCTAGACACTTTCTCTGA
B8: probe c (WUS) (dsDNA)
DNA 1: TTTTAGAATTTTTGTTTTGTTTTCTGTGTGTATG
DNA 2: CATACACACAGAAAACAAAACAAAAATTCTAAAA
B9: probe b (OSR2) (dsDNA)
DNA 1: CTGTAACGTCTTTCTCTTCACACACATAAAAAAG
DNA 2: CTTTTTTATGTGTGTGAGAGAGAAAGACGTTACAG

biological target: OTLD1-RFP (Arabidopsis); assay: FRET or BRET; acceptor photobleaching FRET (AB-FRET): GFP donor, RFP acceptor, transiently co-expressed in N. benthamiana leaves; %AB-FRET = percent increase in GFP emission after RFP photobleaching, cell nucleus, n = 13 cells; conditions: not given
Sequence (F4IFS7 whole entry): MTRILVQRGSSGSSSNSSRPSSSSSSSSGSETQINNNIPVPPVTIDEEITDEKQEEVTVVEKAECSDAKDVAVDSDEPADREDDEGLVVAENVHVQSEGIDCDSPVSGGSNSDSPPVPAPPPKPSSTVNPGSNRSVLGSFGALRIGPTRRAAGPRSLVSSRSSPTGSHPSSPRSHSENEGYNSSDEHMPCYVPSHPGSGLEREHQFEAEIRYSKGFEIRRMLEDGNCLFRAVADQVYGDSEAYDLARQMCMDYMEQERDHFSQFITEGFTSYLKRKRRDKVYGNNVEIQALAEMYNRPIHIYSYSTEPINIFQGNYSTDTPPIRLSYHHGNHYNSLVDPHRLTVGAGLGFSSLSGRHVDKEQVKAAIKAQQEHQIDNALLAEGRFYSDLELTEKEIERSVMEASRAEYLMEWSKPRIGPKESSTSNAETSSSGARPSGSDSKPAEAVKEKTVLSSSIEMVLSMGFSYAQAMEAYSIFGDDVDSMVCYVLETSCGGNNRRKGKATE

| Binder | %AB-FRET (increase in the donor fluorescence) |
| --- | --- |
| B1 | 13% |

biological target: T1, GST-LSH10; assay: EMSA; poly dI.dC; reduced by 300x unlabeled probe; 100 mM Tris, 500 mM KCl, 10 mM DTT, pH 7.5 (as printed binding buffer), 1 ug dI.dC, 10 ng probe, 1 ug protein, room temperature 20 min, 6% native PAGE; conditions: protein: recombinant; tags: N-terminal GST (pGEX-5X-1); label: biotin (labeled probe)

| Binder | binding result |
| --- | --- |
| B2 | binds |
| B3 | binds |
| B4 | binds |
| B5 | binds |
| B6 | binds |
| B7 | binds |
| B8 | binds |

same assay, conditions: protein: recombinant; tags: N-terminal GST (pGEX-5X-1); label: biotin (labeled probe); internal mismatch/bulge as printed

| Binder | binding result |
| --- | --- |
| B9 | binds |

Reference: paper PMC9845307, “Arabidopsis LSH10 transcription factor and OTLD1 histone deubiquitinase interact and transcriptionally regulate the same target genes”
